System: rabbit cornea
Assay: OPN-induced rabbit corneal neovascularization
Assay type: in vivo
Conditions: pellet with 200 ng hOPN and 1 μg antibody
Experimental: The Hydron powder was dissolved in anhydrous ethanol under sterile condition to the final concentration of 12% (w/v), and dissolved with agitation under 37° C. to formulate the 12% Hydron cast solution, which was then stored at room temperature. A quota of sucralfate powder formulated in sterile Milli Q water under sterile conditions as a suspension with the final concentration of 100 μg/μl, which was stored at 4° C., and vortexed to homogeneous intermediately before use. Sustained-release pellets were prepared to each containing 200 ng hOPN and 50 μg sucralfate and, for the antibody groups, 1 μg anti-OPN antibodies, and for the control, the irrelevant antibody. The 12% Flydron east solution and the hOPN-sucralfate-PBS blend were mixed as the ratio of 1:1 (volume ratio), vortexed for 1 min. Then 5 μl mixed Hydron-sucralfate-hOPN solution was added onto a sterilized Parafilm surface, dried for about 30 min on a super-clean bench for a complete polymerization. The polymers were then shaped into uniform circular granules with a 2 mm diameter using an eye tweezers. The granules were stored at −20′C. Animals were grouped in the same way as in Experiment II-3, each group consisting of four eyes.
The rabbit was anesthetized at ear edge vein with 3% sodium pentobarbital (1 ml/kg body weight) and on both corneal surfaces with 1% tetracaine. The thickness of the cornea was measured using an ultrasonic cornea thickness gauge. A 3 mm half-depth incision was made at the center of the cornea using an ophthalmic knife, and an undermining tunnel toward the 12 o'clock or 3 o'clock position on the corneoscleral margin was made using a 2 mm-wide scleral tunnel knife, whereby the tunnel lied within the corneal layer with the top of the tunnel about 1 mm distant from the limbus corneae. The Hydron/sucralfate sustained-release pellet was implanted into the top of tunnel using micro-tweezers. The cuts were treated with chlortetracycline eye ointment after the surgery. From Day 1 after the surgery, the double-blinded observer observed the rabbit conical neovascularization under the slit-lamp each day, until the Day 10, The length (VL) and the vascular clock angle (CN, 30°=1CN) of the longest vessel were measured, and the area of neovascularization was calculated according to the following formula:
Area (mm^2)=0.2×π×VL (mm)×CN (mm)

[1] = relative to irrelevant antibody group, P<0,01

B1: 1A12: murine anti-hOPN mAb; VH SEQ ID NO: 4, VL SEQ ID NO: 6; from hybridoma 1A12 (antibody, V domains shown)
VH: QVQLEQSGPELVKPGASVKMSCKSSGYTFTTYVMHWVKQKPGQGLEWIGYINPYNDGSKYNEKFKGKATLTSDKSSNTAYMELSSLTSEDSAVYYCASHYGGSPAYWGQGTLVTVSA
VL: DILMTQTPLSLPVSLGDQASISCRSSQSLVHSNGNTYLHWYLQKPGQSPKLLIYKVSNRFSGVPDRFSGSGSGTDFTLKISRVEAEDLGVYFCSQSTHVPWTFGGGTKLEIKR
modifications: amino acid sequence of the heavy chain variable region in 1A12; amino acid sequence of the light chain variable region in 1A12
notes: murine anti-hOPN mAb; from hybridoma 1A12
With B1 the “corneal neovascularization relative to the OPN group” value was “significantly reduced”, the area of neovascularization [1] was “significantly shrunk” and the “length of the newly generated blood vessels” value [1] was “significantly reduced”.

From patent publication US20100151486A1, “OSTEOPONTIN FUNCTIONAL EPITOPES, MONOCLONAL ANTIBODIES AGAINST THE EPITOPES AND USES THEREOF” (SHANGHAI NATIONAL ENGINEERING RESEARCH CENTER OF A, priority 2007, published 2010)
